B1: Serine/threonine-protein kinase RAD53 (Saccharomyces cerevisiae), P22216 (parent)
chain: MENITQPTQQSTQATQRFLIEKFSQEQIGENIVCRVICTTGQIPIRDLSADISQVLKEKRSIKKVWTFGRNPACDYHLGNISRLSNKHFQILLGEDGNLLLNDISTNGTWLNGQKVEKNSNQLLSQGDEITVGVGVESDILSLVIFINDKFKQCLEQNKVDRIRSNLKNTSKIASPGLTSSTASSMVANKTGIFKDFSIIDEVVGQGAFATVKKAIERTTGKTFAVKIISKRKVIGNMDGVTRELEVLQKLNHPRIVRLKGFYEDTESYYMVMEFVSGGDLMDFVAAHGAVGEDAGREISRQILTAIKYIHSMGISHRDLKPDNILIEQDDPVLVKITDFGLAKVQGNGSFMKTFCGTLAYVAPEVIRGKDTSVSPDEYEERNEYSSLVDMWSMGCLVYVILTGHLPFSGSTQDQLYKQIGRGSYHEGPLKDFRISEEARDFIDSLLQVDPNNRSTAAKALNHPWIKMSPLGSQSYGDFSQISLSQSLSQQKLLENMDDAQYEFVKAQRKLQMEQQLQEQDQEDQDGKIQGFKIPAHAPIRYTQPKSIEAETREQKLLHSNNTENVKSSKKKGNGRFLTLKPLPDSIIQESLEIQQGVNPFFIGRSEDCNCKIEDNRLSRVHCFIFKKRHAVGKSMYESPAQGLDDIWYCHTGTNVSYLNNNRMIQGTKFLLQDGDEIKIIWDKNNKFVIGFKVEINDTTGLFNEGLGMLQEQRVVLKQTAEEKDLVKKLTQMMAAQRANQPSASSSSMSAKKPPVSDTNNNGNNSVLNDLVESPINANTGNILKRIHSVSLSQSQIDPSKKVKRAKLDQTSKGPENLQFS
partner: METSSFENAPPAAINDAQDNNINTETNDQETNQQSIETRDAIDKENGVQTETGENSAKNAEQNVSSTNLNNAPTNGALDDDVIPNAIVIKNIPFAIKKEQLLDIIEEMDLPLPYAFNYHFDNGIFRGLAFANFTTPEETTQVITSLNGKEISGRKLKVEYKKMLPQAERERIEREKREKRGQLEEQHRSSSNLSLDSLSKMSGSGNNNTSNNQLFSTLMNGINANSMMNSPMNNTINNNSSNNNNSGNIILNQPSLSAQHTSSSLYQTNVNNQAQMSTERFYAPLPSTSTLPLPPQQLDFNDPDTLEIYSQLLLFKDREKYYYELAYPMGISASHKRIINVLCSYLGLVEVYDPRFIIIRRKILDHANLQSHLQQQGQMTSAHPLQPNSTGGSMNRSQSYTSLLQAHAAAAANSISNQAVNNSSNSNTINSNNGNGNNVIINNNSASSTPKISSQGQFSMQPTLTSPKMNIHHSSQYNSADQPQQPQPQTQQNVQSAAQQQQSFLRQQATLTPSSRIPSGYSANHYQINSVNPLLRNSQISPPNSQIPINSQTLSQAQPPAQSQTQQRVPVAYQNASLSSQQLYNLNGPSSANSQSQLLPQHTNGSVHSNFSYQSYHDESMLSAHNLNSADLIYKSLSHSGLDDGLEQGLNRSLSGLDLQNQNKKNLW
B2: RNA-binding protein PIN4 (Saccharomyces cerevisiae), P34217 (parent)
chain: B1 partner

Variants of: B1
Details: with pin4_yeast PIN4, P34217

Variant | effect of a mutation on the interaction
R70A | disrupting interaction
R70K | disrupting interaction
S105T | disrupting interaction
N107A | disrupting interaction

Variants of: B2
Details: with rad53_yeast RAD53, P22216

Variant | effect of a mutation on the interaction
T305A | disrupting interaction

— IntAct's records for PubMed 15024067
